94 variants from the supplement of paper PMC10567573 can be followed below.

B1: ZNF263 (parent)
chain: HLTRHQRTHTGEKPYKCTLCGENF
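Note: lentivirally expressed fusions sorted by FACS into six bins by GFP to DsRed ratio, PSI derived from sequencing read proportions per bin multiplied by bin number.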

In the data set the parent is B1. Description: protein stability index of a GFP-peptide fusion (GPS, HEK-293T) (PSI 1-6); higher = more stable. Particulars: c terminus: a fixed tail appended.
In the case of HLTRHQRTPTGEKPYKCTLCGENF [H9P], the protein stability index is 2.77.

As to HLTRHQRTLTGEKPYKCTLCGENF [H9L], the protein stability index is 2.51.

Take HLTRHQRTTTGEKPYKCTLCGENF [H9T]: the protein stability index stood at 3.04.

As for HLTRHQRTRTGEKPYKCTLCGENF [H9R], the protein stability index worked out at 3.11.

Take HLTRHQRTCTGEKPYKCTLCGENF [H9C]: the protein stability index is 2.74.

As for HLTRHQRTFTGEKPYKCTLCGENF [H9F], the protein stability index was 2.22.

As to HLTRHQRTETGEKPYKCTLCGENF [H9E], the protein stability index is 3.41.

With HLTRHQRTKTGEKPYKCTLCGENF [H9K], the protein stability index is 3.58.

Turning to HLTRHQRTMTGEKPYKCTLCGENF [H9M], the protein stability index worked out at 2.5.

For the variant HLTRHQRTGTGEKPYKCTLCGENF [H9G], the protein stability index worked out at 3.04.

As to HLTRHQRTNTGEKPYKCTLCGENF [H9N], the protein stability index is 2.79.

As for HLTRHQRTATGEKPYKCTLCGENF [H9A], the protein stability index came to 2.67.

With HLTRHQRTDTGEKPYKCTLCGENF [H9D], the protein stability index was 2.83.

With HLTRHQRTQTGEKPYKCTLCGENF [H9Q], the protein stability index stood at 2.67.

For HLTRHQRTSTGEKPYKCTLCGENF [H9S], the protein stability index was 2.71.

With HLTRHQRTITGEKPYKCTLCGENF [H9I], the protein stability index worked out at 2.48.

Regarding HATRHQRTHTGEKPYKCTLCGENF [L2A], the protein stability index came to 3.06.

As for HWTRHQRTHTGEKPYKCTLCGENF [L2W], the protein stability index came out at 2.71.

With HETRHQRTHTGEKPYKCTLCGENF [L2E], the protein stability index was 3.31.

Turning to HKTRHQRTHTGEKPYKCTLCGENF [L2K], the protein stability index came out at 3.38.

Regarding HDTRHQRTHTGEKPYKCTLCGENF [L2D], the protein stability index worked out at 4.16.

In the case of HGTRHQRTHTGEKPYKCTLCGENF [L2G], the protein stability index was 3.51.

As to HHTRHQRTHTGEKPYKCTLCGENF [L2H], the protein stability index came out at 3.53.

Take HCTRHQRTHTGEKPYKCTLCGENF [L2C]: the protein stability index is 4.73.

HPTRHQRTHTGEKPYKCTLCGENF [L2P]: the protein stability index was found to be 3.57.

For HYTRHQRTHTGEKPYKCTLCGENF [L2Y], the protein stability index came to 3.3.

On to HSTRHQRTHTGEKPYKCTLCGENF [L2S], for which the protein stability index worked out at 3.8.

Turning to HMTRHQRTHTGEKPYKCTLCGENF [L2M], the protein stability index turned out to be 3.04.

For HQTRHQRTHTGEKPYKCTLCGENF [L2Q], the protein stability index was determined as 3.22.

In the case of HTTRHQRTHTGEKPYKCTLCGENF [L2T], the protein stability index was 3.14.

Consider HNTRHQRTHTGEKPYKCTLCGENF [L2N], for which the protein stability index worked out at 3.73.

Turning to HVTRHQRTHTGEKPYKCTLCGENF [L2V], the protein stability index worked out at 3.39.

As for HITRHQRTHTGEKPYKCTLCGENF [L2I], the protein stability index was found to be 2.59.

For the variant HFTRHQRTHTGEKPYKCTLCGENF [L2F], the protein stability index came to 2.9.

With HRTRHQRTHTGEKPYKCTLCGENF [L2R], the protein stability index came to 2.79.

Consider HLCRHQRTHTGEKPYKCTLCGENF [T3C], for which the protein stability index is 3.47.

In the case of HLPRHQRTHTGEKPYKCTLCGENF [T3P], the protein stability index is 2.48.

HLKRHQRTHTGEKPYKCTLCGENF [T3K]: the protein stability index is 3.1.

Turning to HLWRHQRTHTGEKPYKCTLCGENF [T3W], the protein stability index was determined as 2.31.

In the case of HLGRHQRTHTGEKPYKCTLCGENF [T3G], the protein stability index is 2.3.

With HLDRHQRTHTGEKPYKCTLCGENF [T3D], the protein stability index is 3.77.

For the variant HLMRHQRTHTGEKPYKCTLCGENF [T3M], the protein stability index amounted to 2.63.

Consider HLSRHQRTHTGEKPYKCTLCGENF [T3S], for which the protein stability index was found to be 2.83.

For the variant HLVRHQRTHTGEKPYKCTLCGENF [T3V], the protein stability index turned out to be 2.93.

On to HLRRHQRTHTGEKPYKCTLCGENF [T3R], for which the protein stability index came to 3.77.

For the variant HLLRHQRTHTGEKPYKCTLCGENF [T3L], the protein stability index is 2.1.

With HLNRHQRTHTGEKPYKCTLCGENF [T3N], the protein stability index came to 3.6.

Regarding HLARHQRTHTGEKPYKCTLCGENF [T3A], the protein stability index stood at 2.88.

Take HLYRHQRTHTGEKPYKCTLCGENF [T3Y]: the protein stability index was found to be 2.36.

As for HLFRHQRTHTGEKPYKCTLCGENF [T3F], the protein stability index was 2.3.

As to HLHRHQRTHTGEKPYKCTLCGENF [T3H], the protein stability index was 3.4.

As for HLIRHQRTHTGEKPYKCTLCGENF [T3I], the protein stability index stood at 2.33.

On to HLERHQRTHTGEKPYKCTLCGENF [T3E], for which the protein stability index was found to be 3.29.

For the variant HLQRHQRTHTGEKPYKCTLCGENF [T3Q], the protein stability index is 3.28.

On to HLTRHQRMHTGEKPYKCTLCGENF [T8M], for which the protein stability index amounted to 2.5.

As for HLTRHQRNHTGEKPYKCTLCGENF [T8N], the protein stability index was determined as 3.22.

Regarding HLTRHQRRHTGEKPYKCTLCGENF [T8R], the protein stability index was 3.49.

Consider HLTRHQRKHTGEKPYKCTLCGENF [T8K], for which the protein stability index turned out to be 2.38.

For HLTRHQREHTGEKPYKCTLCGENF [T8E], the protein stability index was 3.4.

Regarding HLTRHQRDHTGEKPYKCTLCGENF [T8D], the protein stability index stood at 3.52.

In the case of HLTRHQRHHTGEKPYKCTLCGENF [T8H], the protein stability index came out at 2.78.

In the case of HLTRHQRPHTGEKPYKCTLCGENF [T8P], the protein stability index came to 2.54.

Turning to HLTRHQRWHTGEKPYKCTLCGENF [T8W], the protein stability index was 2.29.

As for HLTRHQRGHTGEKPYKCTLCGENF [T8G], the protein stability index was 2.9.

HLTRHQRFHTGEKPYKCTLCGENF [T8F]: the protein stability index is 2.46.

With HLTRHQRQHTGEKPYKCTLCGENF [T8Q], the protein stability index came out at 3.41.

Take HLTRHQRVHTGEKPYKCTLCGENF [T8V]: the protein stability index came to 2.65.

For the variant HLTRHQRLHTGEKPYKCTLCGENF [T8L], the protein stability index amounted to 2.78.

With HLTRHQRIHTGEKPYKCTLCGENF [T8I], the protein stability index came to 3.1.

Take HLTRHQRAHTGEKPYKCTLCGENF [T8A]: the protein stability index worked out at 3.44.

HLTRHQRSHTGEKPYKCTLCGENF [T8S]: the protein stability index turned out to be 3.4.

With HLTRHQRCHTGEKPYKCTLCGENF [T8C], the protein stability index was 2.99.

Regarding HLTRHQRYHTGEKPYKCTLCGENF [T8Y], the protein stability index stood at 2.25.

As for HLTRHQVTHTGEKPYKCTLCGENF [R7V], the protein stability index amounted to 2.96.

Turning to HLTRHQPTHTGEKPYKCTLCGENF [R7P], the protein stability index stood at 2.63.

For the variant HLTRHQQTHTGEKPYKCTLCGENF [R7Q], the protein stability index was 2.96.

On to HLTRHQYTHTGEKPYKCTLCGENF [R7Y], for which the protein stability index is 2.9.

On to HLTRHQETHTGEKPYKCTLCGENF [R7E], for which the protein stability index turned out to be 3.98.

HLTRHQLTHTGEKPYKCTLCGENF [R7L]: the protein stability index was determined as 2.97.

Turning to HLTRHQFTHTGEKPYKCTLCGENF [R7F], the protein stability index came out at 2.49.

Regarding HLTRHQCTHTGEKPYKCTLCGENF [R7C], the protein stability index is 4.78.

HLTRHQDTHTGEKPYKCTLCGENF [R7D]: the protein stability index was determined as 3.2.

As to HLTRHQSTHTGEKPYKCTLCGENF [R7S], the protein stability index is 3.36.

As for HLTRHQGTHTGEKPYKCTLCGENF [R7G], the protein stability index was determined as 3.39.

For HLTRHQMTHTGEKPYKCTLCGENF [R7M], the protein stability index is 2.94.

In the case of HLTRHQKTHTGEKPYKCTLCGENF [R7K], the protein stability index worked out at 2.97.

For HLTRHQNTHTGEKPYKCTLCGENF [R7N], the protein stability index came out at 3.51.

In the case of HLTRHQWTHTGEKPYKCTLCGENF [R7W], the protein stability index turned out to be 2.12.

Regarding HLTRHQHTHTGEKPYKCTLCGENF [R7H], the protein stability index worked out at 4.64.

Take HLTRHQTTHTGEKPYKCTLCGENF [R7T]: the protein stability index was 3.6.

For HLTRHQITHTGEKPYKCTLCGENF [R7I], the protein stability index was 2.4.

Turning to HLTRHQATHTGEKPYKCTLCGENF [R7A], the protein stability index is 2.94.

As to HLTFHQRTHTGEKPYKCTLCGENF [R4F], the protein stability index is 2.38.

Regarding HLTMHQRTHTGEKPYKCTLCGENF [R4M], the protein stability index worked out at 2.83.
